Article PMC8517440, “Structural and Catalytic Characterization of TsBGL, a β-Glucosidase From Thermofilum sp. ex4484_79” (Frontiers in Microbiology, 2021)

Key:
purified protein [1] = substrate: O=[N+]([O-])c1ccc(O[C@@H]2O[C@H](CO)[C@@H](O)[C@H](O)[C@H]2O)cc1; assay: purified protein; assay type: biochemical, Thermofilum sp. ex4484_79; details: pH 5.0, 90°C, 0.1-6.0 mM substrate, kcat printed 135.1 in Table 2
purified protein [2] = substrate: O=[N+]([O-])c1ccc(O[C@@H]2O[C@H](CO)[C@H](O)[C@H](O)[C@H]2O)cc1; assay: purified protein; assay type: biochemical, Thermofilum sp. ex4484_79; details: pH 5.0, 90°C, table header prints mm^-1, text prints 1.05 mm

B1: TsBGL (Thermofilum sp. ex4484_79) (protein)
chain: MPFPEKFFWGASSSGFQFEMGDPEGKSIDPNTDWFKWVHDETNIRRGVVSGDLPEHGINYWDLFRSDHELAASIGMNAYRIGIEWSRIFPKPTLDVRVGIELDPEGYITRVEVDDKAIEELDLLANKEAVSRYREIILDLRDRGLKVFVCLNHFTLPLWIHDPIACRDTKLKRGPKGWVDKTTILEFAKYSAYMAWSLGNIVDYWVTFNEPMVVTEAGYFQPEVGFPPGLRNISAFKTACLNIANAHVVAYDLIKKYDKVRADDDSPSAAYVGIVHNIVPIKPYSERKLDLKAADLMNYIHNKWILEFIVRGKIDRSLVGREKYLIDKFKDKLDWLGVNYYTRIVLKGKWVPPLISPVPVIPDIVKGYGFNCTPGGRSLDGMPVSDFGWEVYPQGLSDALDIASEYGKPLIVTENGIADSEDNIRPYFLVSHLKVLEEYVEKKKNVYGYLHWALTDNYEWAQGFKMRFGLTDVDLETKERKPRESSEVFKIIASEKTVPEELVEKYPKPIF
notes: synthetic gene in E. coli BL21(DE3) pLysS; N-terminal His6-SUMO tag cut with Ulp1; check)
Km (purified protein [1]): 617 µM
kcat (purified protein [1]): 136.05 s⁻¹
Km (purified protein [2]): 1054 µM
kcat (purified protein [2]): 124 s⁻¹
kcat/Km (purified protein [2]): 118000 M⁻¹ s⁻¹
